Test results from the nanobody polyreactivity screen of Harvey et al. (2022).

Assay: yeast display, Sf9 membrane polyspecificity reagent, FACS + sequencing; frameworks hold sequencing errors
Outline: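 Using colony PCR, genes from sorted yeast display clones were amplified, then sequenced on MiSeq at 2 × 250 and filtered by CDR length. The clones had been stained with 10% biotinylated, detergent-solubilized Sf9 membrane reagent for 1 hour at 4 °C and sorted by FACS into low and high (top ~1%) gates on anti-HA and streptavidin fluorescence. Polyreactivity labels come from the gate of origin.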

Sequence	polyreactivity (PSR sort gate)
QVQLVESGGGLVQAGGSLRLSCAASGSTFQYNAMGWYRQAPGKERELVARISSSGGRTYYADSVKGRFTISRDNAKNTVYLQMNSLKPEDTAVYYCNKGYPYVAYDYWGQGTQVTVSS	high polyreactivity
QVQLVESGGGLVQAGGSLRLSCAASGSIFTTNAMGWYRQAPGKERELVARIDRAGSTYYADSVKGRFTISRDNAKNTVYLQMNSLKPVDTAVYYCAVEAVLSRPYATKFDYWGQGTQVNVSS	low polyreactivity
QVQLVESGGGLVQAGGSLRLSCAASGFIFQRYAMGWYRQAPGKERELVAAISSSGGRTSYADSVKGRFTISRDNAKNTVYLQMNSLKPEDTAVYYCAAYPQGRWYVVWSGDYWGQGTQVTVSS	high polyreactivity
QVQLVESGGGLVQAGGSLCLSCAASGRTFIRNAMGWYRPAPGKERELVAAINSGGITNYADSVKGRFTISRDNAKNTVYLQMNSLKPEDTALYYCNARQVLYGLYLRAYPYEYWGQGTQVTVSS	low polyreactivity
QVQLVESGGGLVQAGGSLRLSCAASGSTFTSNTRWYRPAPGKERELVAAISSSGRTYYADSVKGRFTISRDNAKNTVYLQMNSLKPEDTAVYYCAARGREFGYWGQGTQVTVSS	high polyreactivity
QVQLVESGGGLVQAGGSLRLSCAASGFTLLKYDMGWYRQAPGKERELVAAITRRGGRTSYADSVKGRFTISRDNAKNTVYLQMNSLKPEDTAVYYCNADGDTGRFDYWGQGTQVSVSS	high polyreactivity
QVQLVESGGGLVQAGGSLRLSCAASGRIFPPNAMGWYRQAPGKERELVAGITPSGDTTYYADSVKGRFTISRDNAKNTVYIQMNSLKPEDTAVYYCAKDEVYADDRSALFDYWGQGTQVTVSS	low polyreactivity
QVQLVESGGGLVQAGGSLRLSCAGSGIIFRGYDMGWYRQAPGKEMELVAAITWRGGSTYYADSVKGRFTISRDNAKNTVYLQMNSLKPEDTAVYYCAAVRKHSWFRHMDYWGQGTLVTVSS	high polyreactivity
QVQLVESGGGLVQAGGSLRLSCAASGSTFPFYAMGWYRQAPGKERELVAAITSGGSTYADSVKGRFTITRDNAKNTVYLQMNSLKPEDTSVYYCAASWPRWWRFGYWGQGTQVNVSS	low polyreactivity
QVQLVESGGGLVQAGGSLRLSCAASGYTFGGNAMGWYRQAPGKERELVAAISSGGSTNYADSVKGRFTISRDNAKNTVYLQMNSLKPEDTAVYYCNKRGYYYWSGQDVASYDYWGQGTQVTVSS	low polyreactivity
QVQLVESGGGLVHAGGSLRLSCAASGRTFRYYTMGWYRQAPGKEREFVAAISSTGGTYYADSVKGRFTISRDNAKNTVYLQMNSLKPEDTAVYYCAATFIQVVVNVQLYDYDYWGQGTQVTVSS	low polyreactivity
QVQLVESGGGLVQAGGSLRLSCAASGRIFFGYAMGWYRQAPGKERELVATITSGGSTYYADSVKGRFTISRDNAKNTVYLQMNSLKPEDTAVYYCASQLHWVFTSGWAYRGSYDYWGQGTQVTVSS	low polyreactivity
QVQLEESGGGLVQAGASLRLSCAASGNIFPRNAMGWYRQAPGKERELVAAISASGDNTYYADSVKGRFTISRDNAKNTVYLQMNSLKPEDTEVYYCAAATFYESIQPYESVAYDYWGQGTQVTVSS	low polyreactivity
QVQLVESGGGLVQAGGSLRLSCAASGFTFPDYAMGWYRQAPGKERELVAGISSTGDSTYYADSGKGRYTISRDNAKNTGYLQRNSLKPEETAVYYCNAAQERPSIILFSKYDYWGQGTQETVSS	low polyreactivity
QVQLVESGGGLVQAGGSLRLSCAASGRNFLYNAMGWYRQAPGKERELVAAISGGSTNYADSVKGRFTISRDNAKNTVYLQMHSLKPEDTAVYYCAARYLRRYNWGQGTQVSVSS	high polyreactivity
QVQLVDSGGGLVQAGGRLRLSCAASGLIFSYYARGRYRQGPRKERELVPAISSGGRTSYADSVKGRFTISRDNEKNTVYLKMNSVKPEASAVYYCAAYPVYNRPGDYWGQGTQVTVSS	high polyreactivity
QVQLVESGGGLVQAGGSLRLSCAASGFILGYYVMGWYRQAPGKERELVAAISSGGRTYYADSVKGRFTISRDNAKNTVYLQMNSLKPEDTAVYYCNAYAPRRRFDYWGQGTQVTVSS	high polyreactivity
QVQLVESGGGLDQAGGSLRLSCAASGSIFGYAMGWYRQAPGKERELLAAITDSGGRTYYADSVKGRFTISRDNAKNTVYLQMNSLKPEDTAVYYCAKTWYPWSRYGYYRRYDSWGQGTQVNVSS	low polyreactivity
QVQLVESGGGLVQAGGSLRLSCAASGGTFSPYAMGWYRQAPGKERELVAAIRYSGDRTYYADSVKGRFTISRDNAKNTVYLQMNSLKPEDTAVYYCAGPYYNTGYRYGYWGQGTQVTVSS	high polyreactivity
QVHLVESGAGLVHAGGRLRLSCAASGRIFFGYAMGWYRQAPGKERELVAGITSSTGRTYYADSVKGRFTISRDNAKNTVYLQMNSVKPEDTAVYYCAADTWYRYDYWGQGTQVTESS	low polyreactivity
QVQLVESGGGLVQAGGSLRLSCAASGSIFFSNAMGWYSPAPGKEREIVAGIRSGGITNYADSVKGRFTISRDNAKNTVYLEMNSLKPEDTAVYYCAKLNDHGRYAYAFDYWGQGTQVTVSS	low polyreactivity
QVQLVESGGGLVQAGGSLRLSCAASGGIFLVNDMGWYRQAPGKERELFAAITSGGGTYYADSVKGRFTISRDNAKNTVYLQMNSLKPEDTAVYYCARDTYRQIVSNESYGYWGQGTQVTVSS	low polyreactivity

Sequence	polyreactivity (PSR sort gate)
QVQLVESGGGLVQAGGSLRLSCAASGIIFGSYAIGWYRQAPGKERELVAGISRRGDSTYYADSVKGRFTISRDNAKNTVYLQMNSLKPEDTAVYYCAARWFRRSTYLYYYWGQGTQVTVSS	high polyreactivity
QVQLVESGGGLVQAGGSLRLSCAASGRTFQGNVMGWYRQAPGKERELVAAISRSGSRTYYADSVKGRFTISRDNAKNTVYLQMNSLKPEDTAVYYCNALKSKRRQVIWYDYWGQGTQVTVSS	high polyreactivity
QVQLVESGGGLVQAGGSLRLSCAASGSTFDYYAMGWNRQAPGKERDLVAASTSGSSTYYADSVKGRITISRDNAQNTVYLEMNSLKPEDTAVYYCAARSVYGSSFLSYGYWGQGTQLTVSS	high polyreactivity
QVQLVESGGGLVQAGGSLRLSCAASGSIYSYNVMGWYRQAPGKERELVAAITRSGGSTYYADSVKGRFTISRDNAKNTVYLQMNSLKPEDTAVYYCATAYYSTPFREYSYWGQGTQVTVSS	low polyreactivity
QVQLVESGGGLVQAGGSLRLSCAASGSIFVYYALGWYRQAPGKERELVAAISSSGDTTYYADSVKGRFTISRDNAKNTVYLQMNSLKPEDTAVYYCNTRNDRASQRWVSREMDYWGQGTQVTVSS	high polyreactivity
QVQLQESGGGLVQAGGSLRMSCASSGTIFRISDMGSYRQAPGKDSEFVAAITYGANTYYADSGKGRFTISRDNAKNTVYLQMNSLKPEDTAVYYCAVPPVKETILDYWGQGTQVTVSS	low polyreactivity
QVQLVESGGGLLQAGGSLSLSCAASGSIFVTNAMGWYRQAPGKERELVAAISVSGGSTYYADSVKGRFTISRDNAKYTVYLQMNSLKPEDTAVYYCNTVRSPPGHDYWGQGTQVTLSS	low polyreactivity
QVQLVESGGGLVQAGGSLRLSCAASGSTFNANAMGWYRQAPGKERELVAGISSGGSTYADSVKGRFTISRDNAKNTVYLQMNSLKPEDSAVYYCNADYYSWYPTFYWYDYWGQGSQVTVSS	high polyreactivity
QVQLVESCGCLVQAGGSLRLSCAAYGITFGRNTMVWDRQAPGKERELVAAIDSGGNTYAVSVKGRFTISRDNAKNTVYLQMISLKPEDTAVYYCAVDGGEFSSYGYWGQGTQVTVSS	low polyreactivity
QVQLVESGGGLVQAGGSLRLSCAASGITFDGYAMGWYRQAPGKETELVAANSWSGGRTYYADSVKGRFTISRDNAKNTVYLQMNSLKPEDTAVYYCGVYRRGVVYLLTSGVDYWGQGTQVTVSS	high polyreactivity
QVQLVESGGGLVQAGGSLRISCAASGRTFVVYAMGWYRPAPGKERELVAAIRGSGGSTNYADSVKGRFTISRDNAKNTVYLQMNSLKPEDTAVYYCAATSSLGDFRYDYWGQGTQVTVSS	high polyreactivity
QVQLVESGGGLVQAGGSLRLSCAASGSIFRYYAMGWYRQAPGKERELVAAIRRSGASTYYADSVKGRFTISRDNAKNTVYLHMNSLKPEDTAVYYCAASSFNNGHRYDYWGQGTQVTVSS	high polyreactivity
QVQLVESGGGLVQAGGSLRLSCAASGLTFRTYAMGWYRQAPGKERELVAAITWSGDSTYADSVKGRFTISRDNAKNTVYLQMNSLKPEDTAVYYCATKGYFSYHPYDYWGQGTQVTVSS	low polyreactivity
QVHLVETGRGLLQSGGSLRISCAASGRTFIYNAMGWYRQAPGKERELVARISSGGGNTYYAYSVKWRFTISRDNANNTVYLLMNSLKPEDTAVYYCAIGWRPSFSYYWGQGTQVTVSS	high polyreactivity
QVQLVESGGGIVQAGGSLRLTCAASGRIFPTYAMGWYRQAPGKEREMVATINGDGGSTYYAYSVKGRFTISRDNPKNTVYLHMNSLKPEDTSVDYCAKSYPFAAEYDYWGQGSQVTVSS	low polyreactivity
QVQRVESRGVLVQAGGTLRLSCAASGISFGRNTMGWYRQAPLKERELVATIRSGTNYADSVKGRFTISRDNAKNTVDLQMNSLKPDDTAVDYCAVRYFGGRRSYYWGQGSQVTVSS	high polyreactivity
QDQLVESGGGLVQAGGSLRLSCAASGIIFAWYVMGWYRQAPGKERELVATITSSGGRTYYADSVKGRFTISRDNAKNTVYLQMNSLKPEDTAVYYCNAALTRAFKHSTGYDYWGQGTQVTVSS	low polyreactivity
QVQLVESGGGLVQAGGSLRLSCAASGRTFTYNTMGWYRQAPGKERELVAAISSSGGSTYYADSVKGRFTISRDNAKNTVYLKMNCLKPEDTAVYYCAKRYFSSSRYYYWGQGTKVTVSS	high polyreactivity
QVQLVESGGGLVQAGGSLRLSCAASGPTFWVYAMGWNRQAPGKERELVAAISRSGVSTYYADSVKGRFTISRDNAKNTVYLQMNSLKPEDTAVYYCAAPLIYTPLKYHYWGQGTQVTVSS	low polyreactivity
QVQLVESGGGLVQAGGSLRLSCAASGSTFAGNAMGWYRQAPGKERELVAAIDSSTGSTYYADSVKGRFTISRDNAKNTVYLQMNSLKPEDTAVYYCAAGYYWQYTSSSAQYAYDYWGQGTQVTVSS	low polyreactivity
QVQLVESGGGLVQAGGSLRLSCAASGRTFIINTMGWYRQAPGKERELVAAISKNGATTNYADSVKGRFTISRDNAKNTVYLQMNSLKPEDTAVYYCAKKASYWWGYEYWGQGTQVTVSS	low polyreactivity
